Ends that are not written are not given here. * marks the point of attachment. DOTA = O=C(O)CN1CCN(CC(=O)O)CCN(CC(=O)*)CCN(CC(=O)O)CC1; PEG (n : 3) = short polyethylene glycol linker, n = 3
Target: Transforming growth factor β (human (endogenous in PANC-1))
Sequence (P01137 279-390): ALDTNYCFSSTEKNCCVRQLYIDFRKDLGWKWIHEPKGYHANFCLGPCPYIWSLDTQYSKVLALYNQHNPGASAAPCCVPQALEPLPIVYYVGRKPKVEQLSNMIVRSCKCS

tumor uptake (%ID/g-mean) of [^68Ga]Ga-P144 by microPET at 1 h in PANC-1 tumor-bearing mice, unblocked group (n = 4): 5.36 %ID/g-mean
B1: [^68Ga]Ga-DOTA-P144 (peptide)
peptide: {DOTA-PEG (n : 3)}-TSLDASIWAMMQNA
modifications: also: [68Ga] chelated by the DOTA
